Patent publication US9274110B2, “Diagnosis method of active tuberculosis” (priority 2011, dated 2016)

Settings: cell wall of M. smegmatis overexpressing LipY vs control mycobacteria; 0.5 mM substrate, 40 min, 35° C.

B1: LipY: triacylglycerol hydrolase LipY (Rv3097c) of Mycobacterium tuberculosis, SEQ ID NO: 3 (protein, listed as Mycobacterium tuberculosis)
chain: PEVVFIHGSVVSYVVALPEVMSAAATDVASIGSVVATASQGVAGATTTVLAAAEDEVSAAIAALFSGHGQDYQALSAQLAVFHERFVQALTGAAKGYAAAELANASLLQSEFASGIGNGFATIHQEIQRAPTALAAGFTQVPPFAAAQAGIFTGTPSGAAGFDIASLWPVKPLLSLSALETHFAIPNNPLLALIASDIPPLSWFLGNSPPPLLNSLLGQTVQYTTYDGMSVVQITPAHPTGEYVVAIHGGAFILPPSIFHWLNYSVTAYQTGATVQVPIYPLVQEGGTAGTVVPAMAGLISTQIAQHGVSNVSVVGDSAGGNLALAAAQYMVSQGNPVPSSMVLLSPWLDVGTWQISQAWAGNLAVNDPLVSPLYGSLNGLPPTYVYSGSLDPLAQQAVVLEHTAVVQGAPFSFVLAPWQIHDWILLTPWGLLSWPQINQQLGIAASDIHHHHHH
Lipase activity: degradation of para-Nitrophenyl stearate, absorbance at 405 nm: demonstrating the lipase activity
